The record followed here is patent US9896489B2, “Family of synthetic polynucleotide-binding peptides and uses thereof” (Eastern Virginia Medical School, priority 2012, dated 2018).

The test system of data set [1] is H82 SCLC cells. The experiment in a line: H82 SCLC cell growth, hemocytometer cell counts. The format is cell-based. Conditions: 10^−12 M peptide. The protocol: (§1) The peptide was tested against SCLC cells in culture. The cell lines included H82, H146, and controls. The H82 cell line has amplified c-MYC genes and H146 has increased levels of expression of c-MYC. The controls were normal epithelial cells and HeLa cells (a cervical cancer cell line with no known changes in c-MYC).
H82 SCLC cells were grown in suspension in small cell culture wells in RPMI medium with 10% fetal bovine serum. At time 0, the TZIP peptide was added to the medium at a final concentration of 10^−12 M. Control cells received no peptide. The TZIP peptide was added as a stock solution of 200 μg in 200 μL of deionized water.

Data set [2] has as its system H82 cells. The following applies: H82 cells treated with TZIP peptide as for cell counts. The protocol: Referring to FIG. 7, a subset of H82 cells was treated with the TZIP peptide and the dye trypan blue, which is excluded from live cells. The H82 cells were otherwise treated as previously described and H82 cells used as a control were untreated. The percentages of living cells are represented by solid lines, and the percentages of dead cells are represented by dotted lines.

The subject of data set [3] is HeLa cells. As to the kind of experiment: HeLa cell growth, hemocytometer cell counts. The format is cell-based. Conditions: treated as described for H82 cells. The method, then: This was expected based on the lack of changes in c-MYC in HeLa cell lines. HeLa cells were grown in suspension and either treated or untreated with the TZIP peptide as described above for the H82 cells. Points were taken at different times post treatment, and cells were counted using a hemocytometer. […] This difference was expected, as HeLa cells differ from SCLC cells in many aspects of tumor suppressor gene products and presence of oncogenes.

In data set [4] the test system is SCLC cells. The experiment in a line: Growth of SCLC cell lines treated with TZIP peptide. The format is cell-based. The method, then:
as §1

In data set [5] the test system is human prostate cancer cell lines. As to the kind of experiment: Growth of prostate cancer cells treated with TZIP peptide. The format is cell-based.
Data set [6] has as its system normal human epithelial cells. The experiment in a line: Growth of normal epithelial cells treated with TZIP peptide. The format is cell-based.
For data set [7], the system named is Tat transactivation of the HIV-1 LTR. The experiment in a line: Tat transactivation of HIV-1 LTR-luciferase in U-87 MG cells. The following applies: peptide added exogenously to the medium; clade B LTR and Tat. The format is cell-based. The protocol:
The TZIP peptide's effect on Tat's ability to transactivate the HIV-1 LTR was tested. In this experiment, U-87 MG cells were transfected with the clade B HIV-1 LTR coupled to luciferase. They were also transfected to express Tat, clade B. In the absence of Tat transfection there is no luciferase activity. […] The results in FIG. 9B document inhibition of the HIV-1 LTR at low concentrations of peptide, levels which would be acceptable in humans.

The subject of data set [8] is U-87 MG cells. Format: cell-based.
In data set [9] the test system is KG-1C cells. Format: cell-based.
The subject of data set [10] is ALS ssDNA (GGGGCC hexanucleotide repeat expanded at C9ORF72). The experiment in a line: Electrophoretic mobility shift assay with ALS ssDNA. Format: binding. The protocol: Infrared oligonucleotides representing a GGGGCC hexanucleotide repeat expanded at C9ORF72 in ALS patients were custom ordered and are referred to as ALS ssDNA. 4% polyacrylamide gel electrophoresis was performed using IR-labeled oligonucleotides and imaged using the Li-Cor Odyssey IR imaging instrumentation and software.
Electrophoretic Mobility Shift Assay-Various combinations of Purα, Purβ, TZIP, and IR-labeled oligonucleotides were prepared in the 5× Johnson binding buffer (Bergemann, Andrew D and Johnson, Edward M (1992), The HeLa Pur Factor Binds Single-Stranded DNA at a Specific Element Conserved in Gene Flanking Regions and Origins of DNA Replication. Molecular and Cellular Biology, vol 12:3 (1257-1265), incorporated by reference herein in its entirety), adjusted to 5 mM DTT, 5 mM EDTA, and 0.5% Tween 20. 4% polyacrylamide gel electrophoresis was performed on samples and imaged with the Li-Cor Odyssey instrumentation and software. Densitometry was performed on the DNA concentration course experiments using the Li-Cor Odyssey software.
A Kd value obtained for Purβ was complex and not readily interpretable.

Data set [11] has as its system FXS ssDNA (G-rich trinucleotide DNA repeats at FMR1). The experiment in a line: Electrophoretic mobility shift assay with FXS ssDNA. The format is binding. An excerpt: A GE Microspin GST purification module was used to purify GST-tagged Purα and Purβ from bacterial lysate. Polyacrylamide gel electrophoresis with SDS-Page gels and molecular markers were used to verify that GST, Purα, and Purβ were expressed and purified. Expressed proteins were detected using antibodies against Purα and Purβ, including monoclonal mouse anti-Pur antibody developed in Johnson laboratory (clone 10B12) and polyclonal antibody against Purβ (Abcam). Polyacrylamide gel electrophoresis with TBE buffer was used for gel-mobility shift assay. Infrared-labeled oligonucleotides representing G-rich trinucleotide DNA repeats at FMR1 in patients with Fragile X Syndrome (FXS) were custom ordered and are referred to herein as FXS ssDNA. Infrared-labeled oligonucleotide substrates in agarose and polyacrylamide gels were detected through the use of the Odyssey (LICOR) instrumentation and software. […] When Purα and Purβ are combined (FIG. 17), by increasing the amount of Purβ, the DNA is shifted more to the top of the gel. Therefore, there is more binding of the proteins to the DNA. […] In FIG. 19, TZIP enhances the mobility shift of ssDNA FXS in the presence of Purα.
On the technique in general: In EMSA bound probe runs differently from free probe, usually more slowly.

B1: novel synthetic Purα agonist peptide, 89 aa, SEQ ID NO: 1, with cell transport sequence YARAKRRQARRQIR (peptide)
chain: LASTFVTRDNKRYFMDLKENQRGRFMRVSQVGTRGYRNSLTVSYSVAWLEFRTHLCKLIDEYAKLQYARAKRRQARRQIRQQQQQQQEE
The Kd is the constant that tells how readily two partners part at equilibrium. B1: the “growth of treated cells (cell counts)” value in data set [1] (after three days) is reported as “no further growth of the treated cancer cells was evident”. Besides, the “growth inhibition (cell counts)” value in data set [1] (one day post treatment) was “inhibitory effects of the peptide were evident”. The “cell killing (living/dead cells, trypan blue)” value in data set [2] is on record as “killed TZIP-treated H82 cells”. Moreover, in data set [3], the “effect on cell growth” value is listed as “little effect on the growth of HeLa cells”. Besides, in data set [4], the “inhibitory effect on growth, compared with other cell types” value is on record as “consistently showed the greatest inhibitory effects”. Besides, the growth inhibition result in data set [5] is reported as “effective at inhibiting growth of prostate cancer cells”. Moreover, the “effect of treatment on normal cells” value in data set [6] was “did not show any significant effects”. For the same molecule, the “inhibition of Tat transactivation (luciferase)” value in data set [7] was “transactivation is inhibited over a broad range of low concentrations”. For the same molecule, in data set [8], the “effects on growth kinetics or morphology” value was “did not display any effects on growth kinetics or morphology”. Further, the “effects on growth kinetics or morphology” value in data set [9] is given as “did not display any effects on growth kinetics or morphology”. Also, the “binding of ALS repeat (qualitative)” value in data set [10] (DNA concentration courses) is on record as “strongly bind the ALS repeat in low concentrations”. Also, the “effect of TZIP on Purα binding to ALS ssDNA” value in [10] (Purα and TZIP mixed) is on record as “alter the binding activity of Purα”. Besides, the “effect of TZIP on Purβ binding to ALS hexanucleotide repeat” value in data set [10] (Purβ and TZIP mixed) is reported as “greatly stimulates binding of Purβ”. In addition, the dissociation constant Kd in [10] (densitometry of DNA concentration course) was 0.55 nM. The “concentration at which TZIP functions cooperatively with Purα to enhance binding to the GGGGCC repeat” value in data set [10] (with Purα) was “less than 1 μM”. For the same molecule, in [11], the “binding / mobility shift of ssDNA FXS (qualitative)” value is on record as “tightly binds the FXS trinucleotide expanded repeat” and the “order of binding ssDNA FXS” value was “TZIP>Purα>Purβ”. The “effect of TZIP on Purα binding to ssDNA FXS” value in data set [11] (in the presence of Purα) is reported as “greatly stimulates Purα binding”.
